Measurements: article PMC6117920, “Chitinase 3-like 1-CD44 interaction promotes metastasis and epithelial-to-mesenchymal transition through β-catenin/Erk/Akt signaling in gastric cancer” (Journal of Experimental & Clinical Cancer Research : CR, 2018)

Experiments:
[1] = target: T1, recombinant human CHI3L1 (human, UniProt P36222 22-383); test: BLI; Octet K2; CHI3L1 or IL-13Rα2 ECD immobilised on AR2G biosensor by amine coupling; CD44v3 peptide (15.6, 31.1, 62.5, 125, 250 μM) in the mobile phase; 20 mM HEPES, 150 mM NaCl, 0.05% Tween-20, 1 mM MgCl2 (or 5 mM EDTA); pH 7.4 in the results (pH 7.5 in the methods); heterogeneous ligand model; conditions: both partners purified
T1 construct: Chitinase 3-like-1 (CHI3L1, YKL-40), human, recombinant; also called rhCHI3L1; RhCHI3L1; source: bought: R&D Systems (Cat. #2599-CH)

[2] = target: T2, recombinant human IL-13Rα2 ECD (human, UniProt Q14627 27-343); test: as above; conditions: both partners purified
T2 construct: Interleukin-13 receptor alpha 2, human, extracellular domain; also called rhIL-13Rα2 ECD; Interleukin-13 receptor alpha 2; source: bought: Sino Biological (Cat. #10350-H08H-20)
T2 sequence (looked up): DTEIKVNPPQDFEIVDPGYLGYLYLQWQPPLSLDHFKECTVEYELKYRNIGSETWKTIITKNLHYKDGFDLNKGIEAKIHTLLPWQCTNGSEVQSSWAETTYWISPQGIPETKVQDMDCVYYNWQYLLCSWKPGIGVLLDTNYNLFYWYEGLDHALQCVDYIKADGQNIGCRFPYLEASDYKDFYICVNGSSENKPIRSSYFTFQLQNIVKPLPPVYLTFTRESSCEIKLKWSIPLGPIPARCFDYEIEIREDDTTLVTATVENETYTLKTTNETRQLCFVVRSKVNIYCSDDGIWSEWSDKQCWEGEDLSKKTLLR

T1 sequence (P36222 22-383): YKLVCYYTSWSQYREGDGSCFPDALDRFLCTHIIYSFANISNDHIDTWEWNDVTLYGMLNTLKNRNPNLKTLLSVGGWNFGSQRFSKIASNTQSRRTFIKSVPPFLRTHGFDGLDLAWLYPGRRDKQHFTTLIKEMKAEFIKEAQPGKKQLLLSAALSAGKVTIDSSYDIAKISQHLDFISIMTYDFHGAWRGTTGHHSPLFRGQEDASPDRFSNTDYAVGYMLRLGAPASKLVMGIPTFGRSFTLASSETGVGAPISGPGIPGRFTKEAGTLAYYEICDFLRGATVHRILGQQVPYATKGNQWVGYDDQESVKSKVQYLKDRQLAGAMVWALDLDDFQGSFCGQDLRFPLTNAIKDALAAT

B1: CD44v3 peptide (peptide)
peptide: GWEPNEENEDERDRHLSFSGSGIDDDEDFISSTI
notes: peptide fragment of the v3 domain of CD44; contains the SGSG heparan sulfate assembly motif; also called peptide fragment of CD44v3 domain; source: synthetic peptide (ChinaPeptides Co., Ltd.)
With B1 the Kd [1] was 443 ± 21.4 µM, the koff [1] was 0.013 s⁻¹ and the kon [1] was 29.4 ± 1.39 M⁻¹ s⁻¹. For the same binder, the Kd [2] was 563 ± 15.9 µM, the koff [2] was 0.0162 s⁻¹ and the kon [2] was 28.8 ± 7.66 M⁻¹ s⁻¹.
